Target: carbonic anhydrase 9 (CA9) (UniProt Q16790 38-459)
Assay: cell-based or functional assay

B1: BTE (canonical CA9 x CD3 bispecific T cell engager; G37_DBiTE, Non-HLV) (bispecific antibody)
chain: QSVLTQPPSVSGAPGQRVTISCTGSSSNIGAGYDVHWYQHLPGTAPKLLIYGNSNRPSGVPDRFSGSKSGTSASLAITGLQAEDETDYFCQSYDSSLSAWVFGGGTKVTVLGGGGSGGGGSGGGGSQVQLVQSGGGVVQPGGSLRLSCAASGFPFSSYAMSWVRQAPGKGLEWVSAISANGGTTYYADSVKGRFTISRDNSKNTLYLQMNSLRAEDTAVYYCANNGNYRGAFDIWGQGTMVTVSSGGGGSEVQLVESGGGLVQPGGSLRLSCAASGYSFTGYTMNWVRQAPGKGLEWVALINPYKGVSTYNQKFKDRFTISVDKSKNTAYLQMNSLRAEDTAVYYCARSGYYGDSDWYFDVWGQGTLVTVSSGGGGSGGGGSGGGGSDIQMTQSPSSLSASVGDRVTITCRASQDIRNYLNWYQQKPGKAPKLLIYYTSRLESGVPSRFSGSGSGTDYTLTISSLQPEDFATYYCQQGNTLPWTFGQGTKVEIKSSHHHHHH
- EC50 (pM), cell line 293T-CA9: 13.2 pM
- EC50 (pM), cell line 786-O: 82.5 pM
- EC50 (pM), cell line A-498: 21.4 pM
- EC50 (pM), cell line ACHN-CA9: 38.7 pM
- EC50 (pM), cell line SKRC-52: 1.5 pM

Source: patent US20260258153A1 (WISTAR INSTITUTE OF ANATOMY AND BIOLOGY, published 2026)
